Paper PMC5476676

Target: Protein L (UniProt Q51918)
Test: BLI

Substance: Trastuzumab wild-type (recombinant Trastuzumab model) (antibody)
- koff: 1.2e-05 s⁻¹
